This is an account of results in patent WO2022025129A1 (dated 2022).

Assay [1] concerns the target T1, human insulin (Fujifilm Wako Pure Chemical) (human, UniProt P01308 25-54; P01308 90-110).
T1 construct: also called human-derived component
In words: ELISA, human insulin coated on the plate, anti-human IgG-HRP. On the technique in general: An ELISA detects its analyte on a solid surface through an enzyme-linked reagent.

Assay [2] deals with HBs antigen of genotype C HBV (infectious virus) (Hepatitis B virus (HBV) genotype C). As to the kind of experiment: cell-based or functional assay.

T1 sequence (P01308 25-54 limits assumed, chain 1 of 2): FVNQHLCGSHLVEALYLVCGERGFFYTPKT
T1 sequence (P01308 90-110 limits assumed, chain 2 of 2): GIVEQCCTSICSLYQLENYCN

B1: 3B6 antibody (recombinant human anti-HBs monoclonal antibody) (antibody, V domains shown)
VH: EVQLVESGGGVVQPGKSLRVSCAASGFSFSNYGMHWVRQAPGKGLEWVSVIWRDGSHQYYADSVKGRFTVSRDNARDTLFLQMDGLRAEDTAVYYCAREDPAIVLPVLDHWGRGTLVTVSS
VL: AAAMTQSPVSLSASVGDRVTITCRASQRINSYLNWYQQKPGKAPKLLIYGASNLPSGVPSRFSGSGSGTYFTLTISSLQPEDLATYYCQQGYSTPLLSFGPGTKVEIKR
notes: also called 3B6 clone
Consider B1, for which, in assay [1], the binding result is “no binding (tested: 特異抗原であるHBsへの結合が飽和する濃度の10倍以上の抗体濃度)”. In assay [2], the “neutralization activity against commercially available HBIG (reduction of HBe antigen, PXB cells)” value is ≥ 10 fold against commercially available HBIG.

B2: M2-11 antibody (recombinant human anti-HBs monoclonal antibody) (antibody, V domains shown)
VH: QVQLVESGGGLVKPGESLRLSCAASGFMFSGHSMVWVRQAPGKGLEWVSFIGSTGEFISYADSVRGRFTISRDNAKNSLYLQMNSLRADDTAVYYCAREQGTRGRYYYYGLDVWGQGTTVTVSS
VL: AAAMTQTPPSLSLSPGESATLSCRASQSVSTYLAWYQQKPGQAPRLLIYDAFNRATGIPARFSGSGSGTDFTLTISGLEPEDFAVYYCQQRGHWPLTFGGGTKVEIKR
notes: also called M2-11 clone
Regarding B2, the binding result in assay [1] was “no binding (tested: 特異抗原であるHBsへの結合が飽和する濃度の10倍以上の抗体濃度)”. For the same molecule, the “neutralization activity against commercially available HBIG (reduction of HBe antigen, PXB cells)” value in assay [2] was ≥ 10 fold against commercially available HBIG.

B3: 5A4 antibody (recombinant human anti-HBs monoclonal antibody) (antibody, V domains shown)
VH: QVQLQESGPGLVKPSDTLSLTCTVSGGSISGHYWSWIRRLPGGGLEWIGYIHYSGITNYNPSLKSRVTMSVDMSKNQFSLRLRSVTATDTAVYYCARGDATYGYWGQGAPVTVSS
VL: AAAMTQSPFTLPVTPGEPASISCRSSQSLLHRNGYNYVNWYLRKPGQSPQLLISLGSDRASGVPDRFRGSGAGTDFTLKISRVEAEDVGVYYCMQALRTPWTFGQGTKVEIKR
notes: also called 5A4 clone
As for B3, the binding result in assay [1] was “no binding (tested: 特異抗原であるHBsへの結合が飽和する濃度の10倍以上の抗体濃度)”. Also, in assay [2], the “neutralization activity against commercially available HBIG (reduction of HBe antigen, PXB cells)” value was ≥ 10 fold against commercially available HBIG.
